These results are taken from article PMC9631798 (2022).

Numbering of substitutions follows the chain as printed. Names and notes keep the numbering of the source. Values joined by “and” are separate entries in the source; they are usually repeats but may differ in a detail not shown here. Equal values may be shown once. Where only a bound is given, the exact number is not on record here.

Assay [1] concerns the target F5111.2 IC LN35 (human, UniProt P60568 21-153). The experiment in a line: BLI.
Assay [2] has as its target F5111 IC LN15 (human, UniProt P60568 21-153). The experiment in a line: BLI. For orientation: Biolayer interferometry detects binding as a change in optical thickness at a sensor tip.
Assay [3] addresses F5111 IC LN35 (human, UniProt P60568 21-153). The experiment in a line: BLI.
In assay [4] the target is hIL-2/F5111.2 complex (1:1 molar ratio) (human, UniProt P60568 21-153). The experiment in a line: BLI.
Assay [5] deals with Control (FITC-E2) IC LN35 (human, UniProt P60568 21-153). The experiment in a line: BLI.
Assay [6] deals with hIL-2/F5111 complex (1:1 molar ratio) (human, UniProt P60568 21-153). The experiment in a line: BLI.
Assay [7] addresses F5111 IC LN25 (human, UniProt P60568 21-153). The experiment in a line: BLI.
Assay [8] deals with T1, Biotinylated human IL-2 (human, UniProt P60568 21-153, biotin on the biotin acceptor peptide (BirA ligase)). The experiment in a line: BLI.
Assay [9] deals with yeast-displayed hIL-2 (residues 1-133) (human, UniProt P60568 21-153). The experiment in a line: FACS; yeast surface display. In general terms: Flow cytometry measures light scatter and fluorescence of single cells or particles in a stream.
Assay [10] has as its target T1, Biotinylated human IL-2. The experiment in a line: BLI; Fig S1E.

T1 sequence (P60568 21-153): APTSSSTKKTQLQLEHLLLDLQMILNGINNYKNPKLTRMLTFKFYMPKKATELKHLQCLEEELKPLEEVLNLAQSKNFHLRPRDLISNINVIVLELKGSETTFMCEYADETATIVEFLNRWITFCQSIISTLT
yeast-displayed hIL-2 (residues 1-133), sequence (P60568 21-153): as above

B1: Biotinylated human IL-2Rα extracellular domain (residues 1-217) (receptor)
chain: ELCDDDPPEIPHATFKAMAYKEGTMLNCECKRGFRRIKSGSLYMLCTGNSSHSSWDNQCQCTSSATRNTTKQVTPQPEEQKERKTTEMQSPMQPVDQASLPGHCREPPPWENEATERIYHFVVGQMVYYQCVQGYRALHRGPAESVCKMTHGKTRWTQPQLICTGEMETSQFPGEEKPQASPEGRPESETSCLVTTTDFQIQTEMAATMETSIFTTE
modifications: biotin on the biotin acceptor peptide (BirA ligase)
Take B1: the Kd (in general, a measure of binding affinity in units of concentration) in assay [1] was 2.4 nM; in assay [2], 7.5 nM; in assay [3], 3.2 nM and 3 nM; in assay [4] it was 68 nM; in assay [5], 2.5 nM and 3.4 nM; in [6], 18 nM.

B2: Biotinylated human IL-2Rβ extracellular domain (residues 1-214) (receptor)
chain: AVNGTSQFTCFYNSRANISCVWSQDGALQDTSCQVHAWPDRRRWNQTCELLPVSQASWACNLILGAPDSQKLTTVDIVTLRVLCREGVRWRVMAIQDFKPFENLRLMAPISLQVVHVETHRCNISWEISQASHYFERHLEFEARTLSPGHTWEEAPLLTLKQKQEWICLETLTPDTQYEFQVRVKPLQGEFTTWSPWSQPLAFRTKPAALGKDT
modifications: biotin on the biotin acceptor peptide (BirA ligase)
In the case of B2, the Kd in assay [1] was above 2000 nM; in assay [2] it was 210 nM; in assay [3], above 2000 nM; in [4] it was above 2000 nM; in assay [5] it was 4.1 nM and 4.4 nM; in assay [6], above 2000 nM. In assay [7], this molecule registered a Kd above 2000 nM.

B3: F5111.2 Antibody (N297A) (antibody, V domains shown)
VH: QLQLQESGPGLVKPSQTLSLTCTVSGGSISSGGYYWSWIRQHPGKGLEWIGYIYKSGSAYYSPSLKSRVTISVDTSKNQFSLKLSSVTAADTAVYYCARTPTVTGDWFDPWGRGTLVTVSS
VL: NFMLTQPHSVSESPGKTVTISCTRSSGSIASNYVQWYQQRPGSSPTTVIYEDNQRPSGVPDRFSGSIDSSSNSASLTISGLKTEDEADYYCQTYDSIDVYFGGGTKLTVL
With B3, in assay [8], binding was put at a Kd of 4.9 nM.

B4: F5111 antibody (antibody, V domains shown)
VH: B3 VH with K55Y, A59T, S62N
VL: B3 VL with T93S, I97S, D98N, Y100V
Take B4: the equilibrium dissociation constant (Kd) in assay [9] came to 0.42 nM; in assay [8], 2.7 nM; in assay [10], 2.1 nM.
